Source: patent publication US20110002945A1, “Use of immunoglobulin heavy and light chains or fragments thereof to bind to aggregated amyloidogenic proteins” (published 2011)

Tests used:
[1] = biological target: dityrosine cross-linked Aβ preparation (CAPS) (Homo sapiens (Human), UniProt P05067, dityrosine cross-linked); test: EuLISA on plate-immobilized CAPS
fibrillar Aβ1-40 peptide = fibrillar Aβ1-40 peptide (Homo sapiens (Human), UniProt P05067); test: EuLISA on plate-immobilized fibrils
Description: High binding activated microtiter plate wells were coated with 400 ng of fibrillar Aβ1-40 peptide, which was prepared by aggregation in 10 mM PBS of Aβ1-40 peptide, previously disaggregated by the trifluoro acetic acid/hexafluoroisopropanol procedure [Adekar et al., J. Biol. Chem. 285, 1066-1074 (2010)]. After blocking with 1% bovine serum albumin (BSA), F1 was serially diluted in 10 mM PBS/1% BSA and applied in 100 μl aliquots to coated wells. After incubation for 1 hr, wells were washed, and incubated with biotinylated goat anti-human IgG as a secondary antibody for 1 hr. Thereafter bound HC F1 was determined with a Eu³⁺-streptavidine conjugate followed by the release enhancement reagent (EuLISA) and measuring the amount of Eu³⁺ by time-resolved fluorescence (Victor 1420 multilabel counter) against a standard curve established with known concentrations of Eu³⁺.

IAPP fibrils = biological target: T1, IAPP fibrils (Homo sapiens (Human), UniProt P10997); test: EuLISA on plate-immobilized fibrils (column heads of c9 and c10 seem swapped)
T1 peptide: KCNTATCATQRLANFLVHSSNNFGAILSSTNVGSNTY

EC50 [1]: 28 nM
EC50 (fibrillar Aβ1-40 peptide): 23 nM
EC50 (IAPP fibrils): 40 nM
B1: antibody heavy chain F1 (other)
heavy: AMDWTWSILFLVAAATGAHSQVQLVQSGAEVKKPGASVKVSCKASGYTFSSNGIIWVRQAPGQGLEWLGWISGYNGKTRYAQKVQGRVTITTDTSTSTAYMELRSLRSDDTAVYYCAREKTMVRGAISGYSDYWGQGTLVTVSSASTKGPSVFPLAPSSKSTSGGTAALGCLVKDYFPEPVTVSWNSGALTSGVHTFPAVLQSSGLYSLSSVVTVPSSSLGTQTYICNVNHKPSNTKVDKKRVEPKSCDKTHTCPPCPAPELLGGPSVFLFPPKPKDTLMISRTPEVTCVVVDVSHEDPEVKFNWYVDGVEVHNAKTKPREEQYNSTYRVVSVLTVLDHQDWLNGKEYKCKVSNKALPAPIEKTISKAKGQPREPQVYTLPPSREELMTKNQVSLTCLVKGFYPSDIAVEWESNGQPENNYKTTPPVLDSDGSFFLYSKLTVDKSRWQQGNVFSCSVMHEALHNHYTQKSLSLSPGK
